Entries after “also recorded” stand apart in the source; their conditions may differ.
T1: GCase binding to ldLIMP2 (Homo sapiens, UniProt Q14108)
T1 construct: Purified luminal domain LIMP-2 (1d-LIMP2) was custom made (Sino Biological Inc., PRC.); purchased Sino Biological Inc
T1 sequence (Q14108 28-433 limits assumed): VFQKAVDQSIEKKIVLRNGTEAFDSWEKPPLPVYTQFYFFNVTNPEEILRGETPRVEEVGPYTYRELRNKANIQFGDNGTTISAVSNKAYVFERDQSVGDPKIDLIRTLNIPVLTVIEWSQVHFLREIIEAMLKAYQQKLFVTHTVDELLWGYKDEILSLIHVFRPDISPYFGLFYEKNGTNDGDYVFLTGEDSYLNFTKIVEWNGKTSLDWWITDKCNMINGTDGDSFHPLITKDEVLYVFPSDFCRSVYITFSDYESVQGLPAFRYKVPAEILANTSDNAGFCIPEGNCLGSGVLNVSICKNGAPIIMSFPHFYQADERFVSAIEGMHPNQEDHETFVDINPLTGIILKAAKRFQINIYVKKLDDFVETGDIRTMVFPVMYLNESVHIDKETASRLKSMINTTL

T2: ldLIMP2 (Homo sapiens, UniProt Q14108)
T2 construct: Purified luminal domain LIMP-2 (1d-LIMP2) was custom made (Sino Biological Inc., PRC.); purchased Sino Biological Inc
T2 sequence (Q14108 28-433 limits assumed): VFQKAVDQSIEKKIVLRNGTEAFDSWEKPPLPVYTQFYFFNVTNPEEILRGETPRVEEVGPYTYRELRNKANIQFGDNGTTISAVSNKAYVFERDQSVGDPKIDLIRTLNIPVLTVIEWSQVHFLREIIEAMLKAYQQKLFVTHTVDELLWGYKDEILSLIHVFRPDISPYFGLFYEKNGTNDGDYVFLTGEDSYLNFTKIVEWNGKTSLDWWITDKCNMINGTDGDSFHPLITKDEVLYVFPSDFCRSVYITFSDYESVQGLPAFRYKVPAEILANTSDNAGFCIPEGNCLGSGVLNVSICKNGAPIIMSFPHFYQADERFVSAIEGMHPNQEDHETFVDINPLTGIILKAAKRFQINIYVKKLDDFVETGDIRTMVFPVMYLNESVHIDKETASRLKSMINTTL


Key:
GCase binding to ldLIMP2 = target: T1, GCase binding to ldLIMP2; experiment: Competitive immunoprecipitation of GCase with ldLIMP2 at increasing molar ratios of peptide
Method: FIG. 8A-FIG. 8C: Immunoprecipitation of GCase in the presence of ldLIMP2 and increasing molar ratios of the WT (DSPIIV (SEQ ID NO 15)) peptide. FIG. 8A depicts immunoprecipitation of GCase and LIMP-2. Purified WT GCase was preincubated with purified ldLIMP2 in a molar ratio of 1:1. Then, unlabeled DSPIIV (SEQ ID NO 15) was added in varying molar excesses (0 to 5×, top of figure) over GCase, incubated, and then immunoprecipitated with Protein G-coupled anti-LIMP-2 antibody beads. The beads were then eluted and the eluants were analyzed for GCase and ldLIMP2 on Western blots using the specified antibodies. […] In the bottom panel, ldLIMP2 recovery was the same at all peptide ratios. FIG. 8B depicts immunoprecipitation of GCase and LIMP-2. Purified ldLIMP2 was preincubated with unlabeled WT peptide at various molar ratios. Then, purified WT GCase was added in a 1:1 molar ratio with ldLIMP2, incubated, and then immunoprecipitated and processed as in FIG. 8A. […] FIG. 8C depicts immunoprecipitation of GCase and LIMP-2. Purified WT GCase was preincubated with purified ldLIMP2 in a molar ratio of 1:1. Then peptide DDQRLLL, a potential candidate for the GCase ligand for ldLIMP2, was added in varying molar excesses over WT GCase, incubated, and then immunoprecipitated and processed as in FIG. 8A. […] DDQRLLL (SEQ ID NO 14) is a dileucine peptide outside of the localized targeting region of DSPIIVDITKD (SEQ ID NO 3) (see FIG. 3).
FIG. 14A-FIG. 14B: Immunoprecipitation of GCase in the presence of ldLIMP2 and increasing molar ratios of the WT (DDQRLLL (SEQ ID NO 14)) peptide. In FIG. 14A or FIG. 14B, ldLIMP2 and DDQRLLL (SEQ ID NO 14) were incubated before (as shown in FIG. 14A) or together with (as shown in FIG. 14B) GCase and analyzed as in FIG. 8A-FIG. 8C.
Immunoprecipitation and Competition Studies: To further evaluate the interaction of ldLIMP-2, WT GCase, and the DSPIIV (SEQ ID NO 15) peptide, competitive immunoprecipitation experiments were conducted using increasing concentrations of the WT peptide in competition with GCase for binding (FIG. 8A). […]

ldLIMP2 [1] = target: T2, ldLIMP2; experiment: Fluorescence polarization binding and competition of DDQRLLL GCase peptides to ldLIMP2; settings: ldLIMP2 fixed at 1000 nM; FIG. 13
Method: FIG. 13A-FIG. 13B: Competition and binding of fluorescent labeled or unlabeled DDQRLLL (SEQ ID NO 14) GCase peptides to ldLIMP2. FIG. 13A depicts the δmP of the WT (DDQRLLL (SEQ ID NO 14)) or variously alanine substituted labeled peptides were plotted against the corresponding unlabeled peptide competitors. Note that the fixed ldLIMP2 concentration was 1000 nM or 20 times that used in similar studies (FIG. 7A-FIG. 7C). For all peptides the δmP were near or at background levels. FIG. 13B depicts the binding δmP for the various peptides as in FIG. 13A. The signals were near background levels for all peptides using concentrations 5 to 10 times that for DSPIIV (SEQ ID NO 15) and with a 20 times greater LIMP2 fixed concentration.
Fluorescence Polarization: The DSPIIV (SEQ ID NO 15) and its mutants, and DDQRLLL (SEQ ID NO 14) peptides (FITC labeled or non-labeled) were synthesized (American Peptide Co., Vista, Calif.). Lyophilized peptides were solubilized in acetonitrile and then were diluted at least 10,000-fold into the reactions for fluorescence polarization assessments. The reactions were done at least in duplicate at various peptide and LIMP-2 concentrations (SpectraMax M5, Molecular Device). Fluorescence polarization data were collected and analyzed with SoftMax Pro 5.0 software. Reaction mixtures contained 100 mM phosphate, pH 6.8 and 1 mM DTT.

[2] = CRIM specific activity of GCase variants (activity per cross-reacting immunological material); assay type: biochemical; settings: FIG. 11A, 11B right panels
Method: Enzyme Assays: Cell pellets were homogenized in 0.25% Na-taurocholate and 0.25% Triton X-100. GCase activities were determined fluorometrically with 4 mM 4MU-Glc in 0.2M/0.1M citric-phosphate, pH 5.6 (18, 54)
Corresponding effects on the secretion of GCases from the cells containing various mutations in DSPIIVDITDK were found by assessing the activity of GCases in the media and cell lysate (FIG. 11 A-C). […] Using this assessment, the ratio of CRIM specific activities relative to WT (assigned 100%) for AAA, TAD, and AKA were 20%, 32%, and 49%, respectively (FIG. 11A, right panel), or that more GCase protein was required from the respective mutants to achieve the same enzyme activity as the WT. […] For the other mutants this ranged from 22-36%. This compares to ˜0% for the WT or D399E GCases Immunoaffinity anti-GCase column purification of the various GCases from media confirmed the excesses of these mutant GCases and the inability to detect WT or D399E GCases in media (data not shown).

Gba1−/− fibroblasts = experiment: GCase activity in media and cell lysates after transient transfection (secretion and retention); assay type: cell-based, mouse; settings: media; FIG. 11A, 11B
ldLIMP2 [3] = target: T2, ldLIMP2; experiment: Immunoprecipitation of alanine substituted GCases (TKD sequence) with ldLIMP2; assay type: binding; settings: GCase:LIMP2 1:1; immunoblot; FIG. 6
Excerpt: FIG. 6A-6E: Immunoprecipitation of the alanine substituted GCases in the TKD sequence with ldLIMP2. In panels shown in FIG. 6A to FIG. 6D, the lanes 1 through 6 correspond to the band densities indicated by the bars in FIG. 6E. […] The quantitative results are shown in (FIG. 6E) in which 1, 2, 3, and 4 correspond to WT, AAA, AKA, and AKD, respectively.
Immunoprecipitation of GCases with mutations in the TKD sequence: For immunoblots, Gba1 knockout mouse fibroblasts (null/null) were transfected with the GBA1 constructs (WT or mutants) and expressed for 5 days. The GCases from harvested cell lysates were purified using a GCase antibody affinity column (Dynabeads protein G crosslinked (BS3) with rabbit anti-human GCase antibody). The purified GCases were then mixed with LIMP2 (1:1), incubated (30 min.), and applied to another affinity column (Dynabeads protein G crosslinked (BS3) with rabbit anti-LIMP2 antibody). Aliquots of each step (loading, wash and eluent) were collected and analyzed on 12.5% SDS gels. Immunoblots were developed using anti-human GCase antibody and AP conjugated color development kits. Mock experiments with either non-LIMP2 proteins added or no GCases added, were used as control. The quantitations of these immunoprecipitation data were obtained from densitometry measurements of the gels. The no-LIMP-2 bars are the controls for comparison, since GCase was processed through all steps without LIMP-2 to account for any losses of GCase; About 50% of the GCase was lost during processing.

[4] = system: Gba1 null/null mouse fibroblasts; experiment: Immunofluorescence co-localization of expressed GCase constructs (lysosome vs ER/Golgi); assay type: cell-based

| Molecule | competition of bound GCase off ldLIMP2, in words (GCase binding to ldLIMP2; GCase preincubated with ldLIMP2 1:1, then peptide 0 to 5× molar excess) | competition with GCase for ldLIMP2 binding, in words (GCase binding to ldLIMP2; ldLIMP2, peptide and GCase incubated together, up to 5× molar excess) | prevention of GCase binding to ldLIMP2, in words (GCase binding to ldLIMP2; peptide preincubated with ldLIMP2 before GCase was added, up to 5× molar) | binding to ldLIMP2 (δmP), in words (ldLIMP2 [1]) | CRIM specific activity relative to WT (assigned 100%) [2] [%] | GCase activity in the media / secretion, in words (Gba1−/− fibroblasts) | binding of GCase variant to ldLIMP2, in words (ldLIMP2 [3]) | lysosomal localization of GCases with alanine substitutions in the TKD sequence, in words ([4]; FIG. 5) | co-localization to / retention in the ER/Golgi, in words ([4]; calnexin or calreticulin) |
| --- | --- | --- | --- | --- | --- | --- | --- | --- | --- |
| DDQRLLL (GCase di-leucine sequence) | did not compete GCase off of ldLIMP2 | did not complete with GCase; also recorded: does not compete with GCase | did not complete with GCase; also recorded: does not compete with GCase | lack of binding; also recorded: little or no binding |  |  |  |  |  |
| AAA: human GCase with triple alanine substitution of TKD (positions 407-409) (protein, listed as Homo sapiens) ARPCIPKSFGYSSVVCVCNATYCDSFDPPTFPALGTFSRYESTRSGRRMELSMGPIQANHTGTGLLLTLQPEQKFQKVKGFGGAMTDAAALNILALSPPAQNLLLKSYFSEEGIGYNIIRVPMASCDFSIRTYTYADTPDDFQLHNFSLPEEDTKLKIPLIHRALQLAQRPVSLLASPWTSPTWLKTNGAVNGKGSLKGQPGDIYHQTWARYFVKFLDAYAEHKLQFWAVTAENEPSAGLLSGYPFQCLGFTPEHQRDFIARDLGPTLANSTHHNVRLLMLDDQRLLLPHWAKVVLTDPEAAKYVHGIAVHWYLDFLAPAKATLGETHRLFPNTMLFASEACVGSKFWEQSVRLGSWDRGMQYSHSIITNLLYHVVGWTDWNLALNPEGGPNWVRNFVDSPIIVDIAAATFYKQPMFYHLGHFSKFIPEGSQRVGLVASQKNDLDAVALMHPDGSAVVVVLNRSSKDVPLTIKDPAVGFLETISPGYSIHTYLWRRQ |  |  |  |  | 20 | the least | essentially no binding; also recorded: did not bind | no lysosomal localization | majority of the enzymes co-localized to the ER/Golgi; also recorded: abundant colocalization to the ER |
